These results are taken from patent publication US20210205365A1, “Chimeric Growth Factor Receptors” (Instil Bio (UK) Ltd., priority 2018, published 2021).

Assay [1] deals with primary human T-cells. The assay can be described thus: Eltrombopag and IL-2 on CrGFR transduced primary human T-cells, up to 21 days. It is filed as cell-based. The following applies: after 21 days, x3 donors, Eltrombopag. On the procedure:
FIGS. 6A-6B—Analysis of Eltrombopag and IL-2 on primary human T-cells from Donor 1. Primary human T-cells from donor 1 were transduced with the WT TpoR or variant CrGFR and incubated in the presence of IL2 or Eltrombopag. Cells were removed at time points up to 21 days and the proportion of cells expressing the receptor assessed using PE conjugated anti-CD110 antibodies and a MACSQuant analyser.
FIGS. 7A-7B—Analysis of Eltrombopag and IL-2 on primary human T-cells from Donor 2. Primary human T-cells from donor 2 were transduced with the WT TpoR or variant CrGFR and incubated in the presence of IL2 or Eltrombopag. Cells were removed at time points up to 21 days and the proportion of cells expressing the receptor assessed using PE conjugated anti-CD110 antibodies and a MACSQuant analyser.
FIGS. 8A-8B—Analysis of Eltrombopag and IL-2 on primary human T-cells from Donor 3. Primary human T-cells from donor 3 were transduced with the WT TpoR or variant CrGFR and incubated in the presence of IL2 or Eltrombopag. Cells were removed at time points up to 21 days and the proportion of cells expressing the receptor assessed using PE conjugated anti-CD110 antibodies and a MACSQuant analyser.
FIGS. 9A-9B—Selection of optimal CrGFRs for next round of analysis. Flow cytometry plots showing expression of CrGFRs in ×3 donor primary human T-cells after 21 days incubation in Eltrombopag. The receptors TpoR.CD40, TpoR.IL2rγ, TpoR.ITAM1, TpoR.A60, TpoR.LMP1-cyto and TpoR.TpoR-cyto.LMP1-cyto were chosen for future comparison with the wt TpoR.
Peripheral blood mononuclear cells were isolated from normal healthy donors before activation for 24 hours with T-cell activation and expansion beads (Invitrogen) according to the manufacturer's instructions before addition of lentiviral supernatants.
Following expansion cells were washed excessively to remove any exogenous IL2 and plated into 96-well U-bottom plates. Cells were supplemented with IL2 (Proleukin) or Eltrombopag (Stratech Scientific, Suffolk, UK). At various time points thereafter cells were either stained with a 1:400 dilution of eFlor-450 fixable viability dye (eBioscience, UK) and counted directly from the wells using a MACSQuant Cytometer, or were stained with DRAQ7 viability dye plus phycoerythrin conjugated anti-CD110 antibodies (Miltenyi Biotec, UK) and analysed using a MACSQuant cytomter. Cell viability and/or transduction level was then analysed using MACSQuantify software (Miltenyi Biotec, UK).
Next Applicants took these receptors and expressed them in primary human T-cells and exposed these cells to IL-2 or Eltrombopag. Three donor primary human T-cell populations were isolated from buffy coats and transduced with the indicated lentiviral constructs in the presence of CD3/CD28 Dynabeads. Following expansion the cells were incubated with IL-2 or Eltrombopag. Applicants saw an increase in expansion/survival of T-cells with some of the receptors in some of the donors. […] This narrowed Applicants' panel of receptors to analyse further to: TpoR.CD40, TpOR.IL2rγ, TpoR.ITAM1, TpOR.LMP1-cyt, and TpoR.TpoR-cyt-LMP1-cyt.

In assay [2] the test system is primary human T-cells. In words: Eltrombopag and IL-2 on CrGFR sorted (CD110+) primary human T-cells, up to 7 days. The following applies: for expansion of CrGFR cells above that with media alone: second donor (FIG. 12). It is filed as cell-based. On the procedure:
FIG. 10—Analysis of Eltrombopag and IL-2 on CrGFR sorted primary human T-cells from Donor 4. Primary human T-cells from donor 4 were transduced with the WT TpoR or variant CrGFR, and enriched for expression by Miltenyi MACS technology selected for and incubated in the presence of IL2 or Eltrombopag. Cells were removed at time points up to 7 days and the number of cells expressing the receptor assessed using PE conjugated anti-CD110 antibodies, DRAQ7 viability dye and a MACSQuant analyser.
FIG. 11—Analysis of Eltrombopag and IL-2 on CrGFR sorted primary human T-cells from Donor 5. Primary human T-cells from donor 5 were transduced with the WT TpoR or variant CrGFR, and enriched for expression by Miltenyi MACS technology selected for and incubated in the presence of IL2 or Eltrombopag. Cells were removed at time points up to 7 days and the number of cells expressing the receptor assessed using PE conjugated anti-CD110 antibodies, DRAQ7 viability dye and a MACSQuant analyser.
FIG. 12—Analysis of Eltrombopag and IL-2 on CrGFR sorted primary human T-cells from Donor 6. Primary human T-cells from donor 6 were transduced with the WT TpoR or variant CrGFR, and enriched for expression by Miltenyi MACS technology selected for and incubated in the presence of IL2 or Eltrombopag. Cells were removed at time points up to 7 days and the number of cells expressing the receptor assessed using PE conjugated anti-CD110 antibodies, DRAQ7 viability dye and a MACSQuant analyser.
Paramagnetic bead sorts were conducted as per the manufacturers' instructions using either anti-PE microbeads (Miltenyi Biotec or StemCell Technologies), or T-cell isolation beads (17951: StemCell Technologies).
Next Applicants repeated the experiment but sorted the CrGFR+ cells using CD110+ selection by paramagnetic bead selection using the receptors identified from the first round of selections (FIGS. 10, 11 and 12). Applicants observed enhanced survival of T-cells engrafted with the majority of the CrGFR in all three donors. In particular Applicants saw expansion of WT-TpoR, TpOR.CD40, TpOR.IL2rγ and TpoR.LMP1-cyto cells in the second donor (FIG. 12) above that with media alone.

Assay [3] relates to Tumour Infiltrating Lymphocytes from TIL042. The assay can be described thus: CrGFR in TIL042 mixed with patient matched tumour cells. It is filed as cell-based, human. On the procedure: (§1) FIG. 13—Analysis of Chimeric recombinant Growth Factor Receptors in TIL042. Tumour Infiltrating Lymphocytes from TIL042 were transduced with the WT TpoR or indicated variant CrGFR and incubated in the presence of patient matched tumour lines with the addition of IL2, Eltrombopag, IL-2+Eltrombopag, or no growth factors. Cells were analysed and counted at days 4 and 7 and the number of cells expressing the receptor assessed using PE conjugated anti-CD110 antibodies, DRAQ7 viability dye and a MACSQuant analyser. Graphs show counts between days 4 and 7 when recovery of TIL occurs after an initial contraction in numbers driven by tumour regulatory factors and/or activation induced cell death.
Applicants next assessed the ability of these receptors to promote survival/expansion in a model of adoptive cell therapy by engineering tumour infiltrating lymphocytes. TIL from patient TIL042 (Uveal melanoma) were engineered with the variant or wt CrGFR and mixed with patient matched tumour cells (CTUM42.1). On days 4 and 7 counts were made of the total cells as well as the CD110+ cells. Applicants found an initial decline in cell numbers, probably driven by AICD or intrinsic inhibitory factors. However between days 4 and 7 Applicants observed an increase in the numbers of CD110+ cells with all the receptors tested with Eltrombopag or Eltrombopag+low dose IL-2.

The next assay has as its system ovarian TIL. The assay can be described thus: CrGFR in ovarian TIL mixed with patient matched tumour cells. To be noted: all three donors. It counts as cell-based, human. On the procedure: as §1, with “14—Analysis” for “13—Analysis”, “Ovarian TIL.” for “TIL042.”, “×3 ovarian TIL” for “TIL042”, “cells” for “lines”, “either Eltrombopag” for “the addition of IL2, Eltrombopag, IL-2+Eltrombopag,”
Applicants evaluated further the effect of the CrGFR in ovarian TIL. Three ovarian TIL populations were engineered to express either the WT, or TpoR.CD40, TpoR.IL2rγ or TpoR.LMP1-Cyt variant receptors and mixed with patient matched tumour cells in the presence or absence of Eltrombopag. Counts of total and CD110+ cells were made after 4 and 7 days. Applicants observed specific expansion of the CrGFR+ cells in the presence of tumour between days 4 and 7 in donors 2 and 3 with all the receptors except the TpOR.LMP1.cyt.

Another assay deals with phospho-STAT5. The assay can be described thus: Induction of pSTAT5 in CrGFR expressing T-cells. It is filed as cell-based, human. The following applies: T-cells transduced with wt TpoR, TpoR.CD40 or TpoR.IL2rγ. On the procedure: FIG. 15—Induction of pSTAT by chimeric recombinant growth factor receptors. Primary human T-cells were isolated and transduced with the indicated CrGFR. Cells were enriched for CrGFR expression using Miltenyi MACS technology and expanded via polyclonal stimulation. The enriched cells were stimulated for 4 h with either media alone (RPMI), IL2, IL12, Tpo or Eltrombopag (Elt) before methanol fixation and intracellular staining with antibodies towards phospho-STAT5.
Finally, Applicants validated the signalling potential of the novel CrGFR by conducting phospho STAT analysis upon treatment of CrGFR expressing T-cells with media, cytokine or drug. To this end T-cells from 4 donors were transduced with either the wt TpoR, TpoR. CD40 or TpoR.IL2rγ, enriched for CrGFR expression using paramagnetic bead selection protocols and then expanded using polyclonal stimulation. The cells were treated for four hours with media alone (RPMI), IL-2, Tpo or Eltrombopag (Elt) before methanol fixation, permeabilization and analysis using pSTAT specific antibodies. STAT molecules are the key drivers of cell signalling upon cytokine activation of cells, pSTAT5 in particular is key to IL-2 activity.

B1: TpoR.CD40: SEQ ID NO: 9; TpoR fused to CD40 cytoplasmic domain (protein)
chain: MPSWALFMVTSCLLLAPQNLAQVSSQDVSLLASDSEPLKCFSRTFEDLTCFWDEEEAAPSGTYQLLYAYPREKPRACPLSSQSMPHFGTRYVCQFPDQEEVRLFFPLHLWVKNVFLNQTRTQRVLFVDSVGLPAPPSIIKAMGGSQPGELQISWEEPAPEISDFLRYELRYGPRDPKNSTGPTVIQLIATETCCPALQRPHSASALDQSPCAQPTMPWQDGPKQTSPSREASALTAEGGSCLISGLQPGNSYWLQLRSEPDGISLGGSWGSWSLPVTVDLPGDAVALGLQCFTLDLKNVTCQWQQQDHASSQGFFYHSRARCCPRDRYPIWENCEEEEKTNPGLQTPQFSRCHFKSRNDSIIHILVEVTTAPGTVHSYLGSPFWIHQAVRLPTPNLHWREISSGHLELEWQHPSSWAAQETCYQLRYTGEGHQDWKVLEPPLGARGGTLELRPRSRYRLQLRARLNGPTYQGPWSSWSDPTRVETATETAWISLVTALHLVLGLSAVLGLLLLRWQFPAHYRRLRHALWPSLPDLHRVLGQYLRDTAALSPPKATVSDTCEEVEPSLLEILPKSSERTPLPLCSSQAQMDYRRLQPSCLGTMPLSVCPPMAESGSCCTTHIANHSYLPLSYWQQPKKVAKKPTNKAPHPKQEPQEINFPDDLPGSNTAAPVQETLHGCQPVTQEDGKESRISVQERQ
modifications: TpoR-CD40; MISC_FEATURE (1)..(491): TpoR Extracellular Domain; MISC_FEATURE (492)..(513): TpoR Transmembrane Domain; MISC_FEATURE (514)..(635): TpoR Cytoplasmic Domain; MISC_FEATURE (636)..(697): CD40 Cytoplasmic Domain
For the molecule B1, the “proportion of viable cells with a distinct population of CD110+ cells” value with primary human T-cells [1] is listed as “good proportion of viable cells with a distinct population of CD110+ cells”. Moreover, the “activity in primary human T-cells” value in the assay on primary human T-cells [2] (conclusion) was “optimal activity”. Further, the “expansion of CrGFR cells above that with media alone” value in the assay on primary human T-cells [2] is “expansion”. In addition, the “non-specific enrichment in IL2 alone” value in assay [3] (TIL042 with patient matched tumour cells) is recorded as “no non-specific enrichment”. In assay [3] (conclusion), the “Eltrombopag mediated survival/expansion of TIL” value is given as “very specific”. In addition, the “activity compared with the WT receptor” value with ovarian TIL is recorded as “superior to that of the WT receptor”.

B2: TpoR.IL2rγ: SEQ ID NO: 6; TpoR fused to IL2rγ cytoplasmic domain (protein)
chain: MPSWALFMVTSCLLLAPQNLAQVSSQDVSLLASDSEPLKCFSRTFEDLTCFWDEEEAAPSGTYQLLYAYPREKPRACPLSSQSMPHFGTRYVCQFPDQEEVRLFFPLHLWVKNVFLNQTRTQRVLFVDSVGLPAPPSIIKAMGGSQPGELQISWEEPAPEISDFLRYELRYGPRDPKNSTGPTVIQLIATETCCPALQRPHSASALDQSPCAQPTMPWQDGPKQTSPSREASALTAEGGSCLISGLQPGNSYWLQLRSEPDGISLGGSWGSWSLPVTVDLPGDAVALGLQCFTLDLKNVTCQWQQQDHASSQGFFYHSRARCCPRDRYPIWENCEEEEKTNPGLQTPQFSRCHFKSRNDSIIHILVEVTTAPGTVHSYLGSPFWIHQAVRLPTPNLHWREISSGHLELEWQHPSSWAAQETCYQLRYTGEGHQDWKVLEPPLGARGGTLELRPRSRYRLQLRARLNGPTYQGPWSSWSDPTRVETATETAWISLVTALHLVLGLSAVLGLLLLRWQFPAHYRRLRHALWPSLPDLHRVLGQYLRDTAALSPPKATVSDTCEEVEPSLLEILPKSSERTPLPLCSSQAQMDYRRLQPSCLGTMPLSVCPPMAESGSCCTTHIANHSYLPLSYWQQPERTMPRIPTLKNLEDLVTEYHGNFSAWSGVSKGLAESLQPDYSERLCLVSEIPPKGGALGEGPGASPCNQHSPYWAPPCYTLKPET
modifications: TpoR.IL2rgamma; MISC_FEATURE (1)..(491): TpoR Extracellular Domain; MISC_FEATURE (492)..(513): TpoR Transmembrane Domain; MISC_FEATURE (514)..(635): TpoR Cytoplasmic Domain; MISC_FEATURE (636)..(721): IL2r-gamma Cytoplasmic Domain
Take B2: in the assay with primary human T-cells [1], the “proportion of viable cells with a distinct population of CD110+ cells” value is reported as “good proportion of viable cells with a distinct population of CD110+ cells”. Further, in the assay on primary human T-cells [2], the “expansion of CrGFR cells above that with media alone” value is “expansion”. The “activity compared with the WT receptor” value in the assay with ovarian TIL was “superior to that of the WT receptor”. The “STAT5 activation of the CrGFR when stimulated with Eltrombopag” value in the assay on phospho-STAT5 was “clear activation of the correct STAT5 activation pathway”.
